Assay results: US20150376237A1, “POLYPEPTIDES FOR BLOOD BRAIN BARRIER TRANSPORT” (SAGETIS BIOTECH, SL, priority 2012, published 2015)

System: in vitro BBB model (bovine brain endothelial cells co-cultured with mouse mixed glial cells)
Experiment: Fluorescently-labelled peptide in vitro BBB model crossing test
Conditions: fluorescent peptide, 20 μg/ml fluorophore in DMEM/F12, 60 min at 37° C.
Method: Mouse primary cultures of mixed glial cells are seeded on a 24-well plate and bovine brain endothelial cells are cultured on collagen-coated inserts in another plate. After three days, the inserts are moved into astrocyte-containing plates and cultured for a further three days. To assess the integrity of the in vitro BBB, trans-endothelial electrical resistance (TEER) is measured on the day of the experiment. TEER values higher than 200Ω/cm^2 are considered acceptable.
Peptides are applied at 20 μg/ml of fluorophore in the luminal side of the inserts and placed in wells filled with Ringer-Hepes buffer (the composition of Ringer-Hepes buffer is described above). After 1 h incubation, samples from the upper and lower compartments are collected and measured using a fluorimeter. […]
All samples (t=0 up, t=0 down, t=60 up and t=60 down) from each condition (testing peptides and negative control) are plated in black 96-well microplates as well as the corresponding standard curves. Fluorescence is measured using a multi-well plate reader. […]
The endothelial permeability coefficient values for LY and the tested peptide are also determined. […] The increment in cleared volume between the incubation times is calculated by dividing the amount of transported compound by the donor chamber concentration and calculating the total volume cleared, as shown below: […]

## SEQ ID NO: 12: GDAAAAKAAKAAAKAAADGY, rigid polypeptide, single domain binder (Rigid_1)
  Percentage BBB crossing: Percentage BBB crossing: 7.51%
